# Test results taken from doi:10.1101/756874, “Spontaneous oligomerization of BAK/BAX is suppressed by hetero-dimerization with MCL-1” (bioRxiv, 2019).
# No end group written: not given here. *: point of attachment. TAMRA = 5-carboxytetramethylrhodamine, CN(C)c1ccc2c(-c3ccc(C(=O)*)cc3C(=O)[O-])c3ccc(=[N+](C)C)cc-3oc2c1
# B1: MCL-1 (UniProt:Q07820, residues 168–327, C286S) (domain or fragment, human)
# chain: GSEEEEDELYRQSLEIISRYLREQATGAKDTKPMGRSGATSRKALETLRRVGDGVQRNHETAFQGMLRKLDIKNEDDVKSLSRVMIHVFSDGVTNWGRIVTLISFGAFVAKHLKTINQESSIEPLAESITDVLVRTKRDWLVKQRGWDGFVEFFHVEDLEGG
# notes: extra GS left at the N-terminus after removal of the tag with thrombin; human MCL-1, residues 168-327, without the disordered N-terminus and the C-terminal transmembrane region; Theoretical mass 18409.74 Da; source: E. coli C41(DE3), purified (Ni-NTA, thrombin cleavage, cation exchange, SEC); not shown: His6, N-terminal, cleaved
# B2: BAK (UniProt:Q16611, residues 16–185, C166S) (domain or fragment, human, UniProt Q16611 16-185, looked up)
# chain: EPALPSASEEQVAQDTEEVFRSYVFYRHQQEQEAEGVAAPADPEMVTLPLQPSSTMGQVGRQLAIIGDDINRRYDSEFQTMLQHLQPTAENAYEYFTKIATSLFESGINWGRVVALLGFGYRLALHVYQHGLTGFLGQVTRFVVDFMLHHSIARWIAQRGGWVAALNLGN
# notes: human BAK, residues 16-185, without the short disordered N-terminal segment and the C-terminal transmembrane helix; cysteine mutated to serine; Monomeric in buffer, oligomeric in detergent; the same construct in all experiments; Theoretical mass 19217.64 Da; also called 'wild-type' BAK (no cysteines); source: E. coli BL21(DE3), purified (chitin resin, intein self-cleavage with DTT, SEC); not …
# How the values were obtained:
# Conditions in all cases: both partners purified
# [1] = molecular target: T1, BAX (UniProt:Q07812, residues 1–171, C62S, C126S) (human, UniProt Q07812 1-171, C62S | C126S); test: native MS; 5 μM total protein (equimolar), 100 mM ammonium acetate pH 7.0, PS20 5xCMC, at least 3 h at room temperature
# T1 construct: human BAX, residues 1-171, without the C-terminal transmembrane helix; cysteines mutated to serines; Theoretical mass 18933.65 Da; source: E. coli C41(DE3), purified (chitin resin, intein self-cleavage with DTT, SEC); not shown: intein, C-terminal, cleaved
# T1 sequence (Q07812 1-171 C62S/C126S, one chain of several): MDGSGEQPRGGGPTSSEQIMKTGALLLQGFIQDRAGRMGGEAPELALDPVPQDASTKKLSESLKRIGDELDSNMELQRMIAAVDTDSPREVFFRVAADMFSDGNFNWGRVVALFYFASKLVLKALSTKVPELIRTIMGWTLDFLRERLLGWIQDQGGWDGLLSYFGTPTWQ
# [2] = molecular target: B2; test: SEC; proteins pre-incubated in detergent (PS20, C12E8 and others, at the multiples of CMC given in the legends); Superdex 200 Increase 10/300 GL, 50 mM sodium phosphate pH 7.0
# [3] = molecular target: B1; test: fluorescence polarisation; kinetics; BAK and MCL-1 pre-incubated in PS20 (20xCMC), then dye-labelled BH3 peptide added; change in TAMRA fluorescence polarisation fitted to a single exponential
# [4] = molecular target: B1; test: out-competition dissociation kinetics (fluorescence); pre-formed equimolar complex of MCL-1 and TAMRA-labelled BH3 peptide diluted into 50–400 molar excess of un-labelled PUMABH3; TAMRA fluorescence intensity or polarisation; manual mixing or stopped-flow; buffer without detergent
# [5] = molecular target: B1; test: stopped-flow association kinetics + other: out-competition dissociation kinetics; affinities of BH3 peptides for MCL-1 in buffer without detergent (Table 1); how Kd was obtained is not told in the text shown
# [6] = molecular target: B1; test: SEC; proteins pre-incubated in detergent (PS20, C12E8 and others, at the multiples of CMC given in the legends); Superdex 200 Increase 10/300 GL, 50 mM sodium phosphate pH 7.0
binder,measurement,setting,value
B1,binding result,[1],binds
same,binding result,[2],binds
B2,half-life (displacement of BAK:MCL-1 hetero-dimers by PUMA),[3],~17 min
"GVRGEEEQWAREIGAQLRRAADDLNAQYERRRQEEQQ (peptide, UniProt Q9BXH1 125-161, looked up, human PUMA BH3, residues 125-161; theoretical mass 4442.75 Da is printed; not shown: His6, N-terminal, cleaved; GB1, N-terminal, cleaved) [PUMABH3, un-labeled, recombinant (UniProt:Q9BXH1, residues 125–161, M144A)]",binding result,[4],binds
"{TAMRA}-ALQPSSTMGQVGRQLAIIGDDINRRYDSEFQTMLQ (peptide, UniProt Q16611 64-98, looked up, source: synthetic peptide, bought: Biomatik) [BAKBH3, TAMRA-labelled 35-residue peptide (UniProt:Q16611, residues 64–98, P64A)]",Kd,[5],0.08 nM
same,koff,[4],0.00056 s⁻¹
"{TAMRA}-SESQEDIIRNIARHLAQVGDSMDRSIPPGLVNGLA (peptide, UniProt P55957 76-110, looked up, source: synthetic peptide, bought: Biomatik) [BIDBH3, TAMRA-labelled 35-residue peptide (UniProt:P55957, residues 76–110)]",binding result,[6],binds
